From the supplement of paper PMC10724198 come the findings set out here.

± gives the standard deviation of the averaged measurements.
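Further: PSI is a weighted mean of sequencing reads over stability bins, variants kept only with over 10 reads, mCherry proximal and sfGFP distal, peptide attached via GGGS linker.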

The test system of this series is Saccharomyces cerevisiae. The series is described as follows: protein stability index of tFT-peptide fusion (C-terminal peptide) (PSI (0-1 scale)); higher = more stable (slower turnover). To be noted: genetic background: wild type; temperature: 30 C. How it is done:
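Multiplexed protein stability (MPS) profiling in S. cerevisiae. Random 12-aa peptides (tFT-X12 library) are fused to the C-terminus of a sfGFP-mCherry tandem fluorescent timer, after mCherry and a GGGS linker. Cells are FACS-sorted into 8 mCherry/sfGFP bins and deep-sequenced. The protein stability index (PSI) is the read-weighted bin average, scaled from 0 (unstable) to 1 (stable). Only peptides with >10 reads are reported; cells were grown at 30 °C in SC-His with glucose.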
EAVVVLVSRFGL had a protein stability index of 0.695 ± 0.044.
On to ECFRWQRRLHYD, for which the protein stability index is 0.533 ± 0.024.
ECSGGGCGQRVG returned a protein stability index of 0.733 ± 0.056.
EDACARFVRLFL came in with a protein stability index of 0.678 ± 0.051.
On to EDCICPLNWFTA, for which the protein stability index was 0.711 ± 0.013.
EDIIRPWSMFQE returned a protein stability index of 0.718 ± 0.043.
To EDKKKKTKANDT belongs 0.669 ± 0.028.
To EDLFELPNSNFS belongs 0.73653 ± 0.00022; to EEKQLNKIKRKI, 0.662 ± 0.059; to EEKRPWRRELLS, 0.562 ± 0.025.
The sequence EEMTVKKERKRI returned a protein stability index of 0.641 ± 0.051.
To EENLLYLLYVEC belongs 0.544 ± 0.016; to EERELGVVWGEV, 0.702 ± 0.024; to EERENKKKLDQT, 0.659 ± 0.029.
Regarding EETGWGVVWVVR, the protein stability index was found to be 0.703 ± 0.037.
Take EFFSFPLTPYAL: the protein stability index was 0.818 ± 0.0035.
For EFKGRHEETTKS the value was 0.72 ± 0.08.
For EFPSGCSSVIVA the value was 0.655 ± 0.049; for EFVGKDRWVGGL, 0.699 ± 0.053; for EFVGSCPLCNTF, 0.622 ± 0.015.
Turning to EGAGGVEGAAWG, the protein stability index was 0.7 ± 0.018.
Sequence EGASLRWARLRI returned a protein stability index of 0.679 ± 0.037.
To EGDGVGCWWELW belongs 0.683 ± 0.033.
Take EGDRWAGEVVRG: the protein stability index was 0.705 ± 0.011.
Sequence EGEVAGRWCGRG displayed a protein stability index of 0.69 ± 0.013.
With EGGIKGKKVRTW, the protein stability index was determined as 0.66 ± 0.0087.
Turning to EGGKRGGTPITK, the protein stability index is 0.654 ± 0.025.
For EGGRRHSVGEQE the value was 0.679 ± 0.01; for EGGWRYNRNGPN, 0.687 ± 0.025.
With EGHSPVQNVIEQ, the protein stability index was 0.698 ± 0.013.
To EGHTRLPSPSPS belongs 0.677 ± 0.009; to EGIYLTVGTVDQ, 0.707 ± 0.049; to EGRGKGKKKKTH, 0.7 ± 0.036.
As for EGRMEAGVEGNS, the protein stability index came out at 0.657 ± 0.053.
In turn, EGRPEERETTGH registered a protein stability index of 0.587 ± 0.057.
For EGTASGSSVRLE the value was 0.693 ± 0.049; for EGYEATYLGVFV, 0.706 ± 0.031; for EGYTPETPCYQK, 0.688 ± 0.029.
For EHGEFLEGARGV the value was 0.645 ± 0.0075.
In the case of EHKRQRPVTRLP, the protein stability index stood at 0.672 ± 0.016.
For EIGSWKTISILV, the protein stability index was found to be 0.487 ± 0.024.
As to EIKEEKEHRNQE, the protein stability index is 0.696 ± 0.052.
Regarding EINSIEQESGTT, the protein stability index came to 0.677 ± 0.019.
Sequence EIRGGDMGEWRE returned a protein stability index of 0.715 ± 0.027.
Turning to EISPQGAKWQEG, the protein stability index came out at 0.655 ± 0.048.
For EKCDYVIPVGLL, the protein stability index came out at 0.702 ± 0.035.
To EKCHVTVVNEMR belongs 0.643 ± 0.074.
To EKEWKRGTRKLD belongs 0.702 ± 0.085.
With EKIRSNIIKLEE, the protein stability index was 0.64 ± 0.097.
To EKKEINKIKNQN belongs 0.662 ± 0.028; to EKKEVSLVKKGR, 0.695 ± 0.039.
For EKKHNKKEVIKK the value was 0.699 ± 0.009.
For EKKKKTIRKRMT the value was 0.6691 ± 0.0018; for EKKKQKDKKKKN, 0.705 ± 0.0078; for EKKRRKKGEKRR, 0.712 ± 0.17.
Consider EKLEGRKIIKKK, for which the protein stability index turned out to be 0.6927 ± 0.006.
The sequence EKNEREEAESGG yielded a protein stability index of 0.714 ± 0.038.
For EKNKKDKNIIIG the value was 0.681 ± 0.04; for EKNKKKIERSTM, 0.684 ± 0.012; for EKRRRRRQEAER, 0.608 ± 0.03.
In the case of EKSPDYVFRWFR, the protein stability index worked out at 0.745 ± 0.044.
EKTNQPFHTLHA yielded a protein stability index of 0.673 ± 0.011.
For the sequence EKVGAGVRLAWN, the protein stability index was found to be 0.695 ± 0.003.
ELCPFLPLFLTY registered a protein stability index of 0.551 ± 0.03.
